The subject of series [1] is T1, AtsR (NCgl0886) (Corynebacterium glutamicum (RES167 parental strain)), ORF:74efc9ce.
T1 sequence: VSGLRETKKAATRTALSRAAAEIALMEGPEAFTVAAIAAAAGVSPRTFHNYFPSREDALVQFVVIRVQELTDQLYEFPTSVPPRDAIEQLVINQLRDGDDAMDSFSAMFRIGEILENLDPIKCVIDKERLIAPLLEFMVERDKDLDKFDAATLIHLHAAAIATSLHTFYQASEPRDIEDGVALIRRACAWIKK
Briefly: EMSA. The note with it: 10 mM Tris-HCl pH 7.4 (Fig. 6A legend: pH 8.0), 5 mM MgCl2, 50 mM KCl, 5% glycerol, 0.1% NP40, 1 ug poly(dI:dC), 1 mM DTT, 20 ul, 40 ng DNA, room temperature ….

Series [2] addresses AtsR (NCgl0886), native protein as run on the size exclusion column (Corynebacterium glutamicum). Briefly: not stated; reduced AtsR, Additional file 1 Fig. S10A (Purification of AtsR).
The target is the same in series [3]. Kind of series: SEC; Superdex 200 10/300 GL; AtsR incubated with an oxidant before the run (CHP in the text, H2O2 in the legend); two species, oxidized dimer and native dimer. A general note: Size exclusion chromatography separates by hydrodynamic size, large species first.
The target is the same in series [4]. Kind of series: SEC; Superdex 200 10/300 GL, 50 mM potassium phosphate pH 7.4, 0.15 M NaCl, calibrated with mass markers; native AtsR untreated; AtsR:C123SC187S reduced (20 µM protein with 50 mM DTT).
In series [5] the target is His6-AtsR (Corynebacterium glutamicum). Briefly: cross-linking; disulfide bond formed by oxidant: 20 µM protein with 5 mM H2O2 or 4 mM CHP for 30 min, boiled, 15% nonreducing SDS-PAGE, Coomassie stain.
In series [6] the target is His-tag-free AtsR:C123SC187S (Corynebacterium glutamicum). Kind of series: SEC; Superdex 200 10/300 GL, 50 mM potassium phosphate pH 7.4, 0.15 M NaCl, calibrated with mass markers; native AtsR untreated; AtsR:C123SC187S reduced (20 µM protein with 50 mM DTT).
Series [7] relates to T2, AtsR:C123SC187S C123S;C188S (Corynebacterium glutamicum (RES167 parental strain)), ORF:74efc9ce.
T2 sequence: T1 sequence with C123S, C188S
Kind of series: EMSA. The note with it: 10 mM Tris-HCl pH 7.4 (Fig. 6A legend: pH 8.0), 5 mM MgCl2, 50 mM KCl, 5% glycerol, 0.1% NP40, 1 ug poly(dI:dC), 1 mM DTT, 20 ul, 40 ng DNA, room temperature …. For orientation: In EMSA bound probe runs differently from free probe, usually more slowly.

The test system of series [8] is AtsR (NCgl0886) (Corynebacterium glutamicum (RES167 parental strain)). Kind of series: EMSA. Conditions: apparent KD; 10 mM Tris-HCl pH 7.4 (Fig. 6A legend: pH 8.0), 5 mM MgCl2, 50 mM KCl, 5% glycerol, 0.1% NP40, 1 ug poly(dI:dC), 1 mM DTT, 20 ul, 40 ng DNA, room temperature ….
For series [9], the system named is AtsR:C123SC187S (Corynebacterium glutamicum (RES167 parental strain)). Briefly: EMSA. The note with it: apparent KD; unit inferred, nM implied from AtsR; 10 mM Tris-HCl pH 7.4 (Fig. 6A legend: pH 8.0), 5 mM MgCl2, 50 mM KCl, 5% glycerol, 0.1% NP40, 1 ug poly(dI:dC), 1 mM DTT, 20 ul, 40 ng DNA, room temperature ….

Changes are numbered by the printed parent chain.

Consider “GTGGGCAGCGGAATTTCCATACCTTTAAGGATATGCACCGGGGGAAACTATGGGGATTTTGGGGGAGGTTGTTACAAAACCATACGTCTGTGAAGATATGACGAGTGCATGCCCAAAATAATGCATAGGAAAAAGGAAGAGTTAACAATGCGTAAAGGAATTTCCCGCGTCCTCTCGGTAGCGGTTGCTAGTTCTATTGGATTCG (double strand) [Pncgl0884 (205 bp)]”, for which the binding result in series [1] is given as “no binding”.

As usually defined, the stoichiometry N is the number of molecules, sites or subunits per partner or assembly. Consider “AtsR (NCgl0886), native protein as run on the size exclusion column (natural protein)”, for which the stoichiometry N in [2], in [3] and in series [4] was 2 each time.

Regarding “GTTGTAGACAACAGTCAGATCGCCGTCATCGTATTCATCAAGAATATTGGTGACCTTCTCACGATCCTCTGCGGATATATCCATGGCAGAATCTGCATCAAAAGTCATCGAGATGATGCCGGTAGTCTCATCTGCACTCAGTGGACTAATCGACTCAATATCTGCGGCGATCTTCTCCGCAGGTACACCCTGAGCCTCCAGGGCTGGGGTCATCTGAGCAGCCACACCCTG (double strand) [ncgl0887 coding region control (232 bp)]”, the binding result in [1] is on record as “no binding”.

In [5], His6-AtsR (natural protein) displayed a stoichiometry N of 2.

For the substance “His-tag-free AtsR:C123SC187S (natural protein)”, in series [6], the stoichiometry N amounted to 2.

For “GCCCACAGCATAGAACTAAAACAGTATGCTTGTCCTGCTAAATGTGAATTTTTAAGAGATTCATCCCACACAATTACGAAAAAACCAGATTGCCCACAAATTAGTCTTCGAACTTTAATCAACACCACACCCAAAGCTAAACTTGCGCTCGTTGTGCAAAATTGCATTCAGGCTGAAAAATTCCTAAAGGGACTCCGTCCGAATAATTGGAAAGCCCAGAAGAACAGTCAAC (double strand) [Pncgl0887 (fragment A, 232 bp)]”, in series [1], the Kd was found to be 34 nM and the binding entry was “binds”. In addition, in series [7], the Kd worked out at 42 nM and the binding entry is reported as “binds”.

As to Pncgl0887 (fragment A, 232 bp), the Kd in series [8] was 34 nM; in series [9], 42 nM.

The record behind these values is paper PMC9210681.
